Results on one substance are retold here after paper PMC4367279, “Comparisons with Amyloid-β Reveal an Aspartate Residue That Stabilizes Fibrils of the Aortic Amyloid Peptide Medin*” (The Journal of Biological Chemistry, 2015).

In this assay the target is medin D25N, recombinant (human). Nature of the assay: thioflavin T fluorescence (aggregation kinetics); 20 uM medin, 20 uM ThT, 30 C, no agitation, 96-well plate, triplicate; 20 mM sodium phosphate, 150 mM NaCl, pH 7.4; sigmoidal fit, slope 1/tau is the rate of polymerization; self-assembly into ThT-responsive aggregates.

Regarding medin D25N, recombinant (peptide), the rate of polymerization (ThT fit) was 1.43 h⁻¹.
